In publication PMC8913300, “Two distinct classes of cochaperones compete for the EEVD motif in heat shock protein 70 to tune its chaperone activities” (The Journal of Biological Chemistry, 2022):

Tests used:
DnaJB4 [1] = molecular target: T1, DnaJB4 (Homo sapiens, UniProt Q9UDY4); test: Differential scanning fluorimetry of DnaJB4 with chaperone peptides; format: binding; conditions: 5 μM DnaJB4, 100 μM peptide; for DnaJB4 apparent melting temperature (Tm,app): 5× Sypro Orange, JDP binding buffer, mean ± SD (n = 4), without peptide 57 ± 0.06 °C
T1 construct: 6-His with TEV-cleavable linker (N, cleaved yes); made in house; host or cells: Escherichia coli BL21 (DE3) Rosetta
Protocol: DSF was performed with a 15-μl assay volume in 384-well Axygen quantitative PCR plates (Fisher Scientific) on a qTower ([3]) real-time PCR thermal cycler (Analytik Jena). Fluorescence intensity readings were taken over 70 cycles in “up-down” mode, where reactions were heated to desired temperature and then cooled to 25 °C before reading. The temperature was increased 1 °C per cycle. Each well contained 5 μM DnaJB4, 5 × Sypro Orange dye (Thermo Fisher), and 100 μM of peptide in JDP binding buffer. Fluorescence intensity data were truncated between 45 and 70 °C, plotted relative to temperature, and fit to a Boltzmann Sigmoid in Prism 9.0 (GraphPad). DnaJB4 apparent melting temp (Tm,app) was calculated based on the following equation: Y = Bottom + ((Top-Bottom)/(1 + exp(Tm-T/Slope))).

DnaJB4 [2] = molecular target: T1, DnaJB4; test: DnaJB4 FP competition (displacement of Hsp72 tracer); format: binding; conditions: 100 μM peptide, 5 μM DnaJB4, 20 nM Hsp72 tracer, 30 min room temperature; for % tracer displacement: relative to DMSO control, mean ± SD (n = 4)
Protocol: (§1) All FP experiments were performed in 384-well, black, low-volume, round-bottom plates at a final assay volume of 18 μl (Corning 4511). Polarization values in millipolarization units (mP) were measured at an excitation wavelength of 485 nm and an emission wavelength of 525 nm, with 100 flashes per read using a Spectramax M5 plate reader (Molecular Devices). All experiments were performed 2 times in quadruplicate. Experimental data were analyzed using GraphPad Prism 9. Saturation binding data were background subtracted, and curves were fit using the model [Agonist] versus response (three parameters). For competition experiments, data were background subtracted to tracer alone and normalized to DMSO control to determine relative tracer displacement.
Unlabeled peptides were assessed for the ability to compete with the Hsp72 tracer. Briefly, 100 μM peptides were incubated with 5 μM DnaJB4 and 20 nM Hsp72 tracer in JDP binding buffer (see above). The plate was covered from light and allowed to incubate at room temperature for 30 min prior to reading.

Hsp72–DnaJB4 complex = test: Luciferase refolding by Hsp72/DnaJB4 in the presence of TPR cochaperones; format: biochemical; conditions: 1 μM Hsp72, 100 nM denatured luciferase, 120 nM DnaJB4; CHIP titration or 10 μM TPR protein; 1 h at 37 °C
Protocol: (§2) Experiments were performed as described ([14]). Briefly, Renilla luciferase (Promega) was denatured in 8 M GdnHCl for 2 h at room temperature. Hsp72 (1 μM) and denatured luciferase (100 nM) were diluted into a working concentration in buffer containing an ATP regenerating system (23 mM Hepes, 120 mM KAc, 1.2 mM MgAc, 15 mM DTT, 61 mM creatine phosphate, 35 units/ml creatine kinase, and 5 ng/μl bovine serum albumin, pH 7.4). A titration series of DnaJB4 was added, and the reaction was initiated with the addition of 2.5 mM ATP. For competition assays with DnaJB4, complexes of Hsp72 (1 μM), denatured luciferase (100 nM), and DnaJB4 (120 nM) were incubated with either a titration of CHIP or 10 μM of indicated TPR protein. In all cases, the assay was allowed to incubate for 1 h at 37 °C in white, 96-well flat-bottom plates (Corning 3990). Luminescence was measured using the SteadyGlo luminescence reagent (Promega), and percent refolded luciferase was calculated using a standard curve of 100 to 0 nM native luciferase.

CHIP = molecular target: T2, CHIP (Homo sapiens, UniProt Q9UNE7); test: CHIP FP competition (displacement of Hsp72 tracer); format: binding; conditions: 100 μM peptide, 1.58 μM CHIP, 20 nM Hsp72 tracer, 30 min room temperature
T2 construct: 6-His with TEV-cleavable linker (N, cleaved yes); made in house; host or cells: E. coli BL21(DE3)
T2 sequence (Q9UNE7 1-303): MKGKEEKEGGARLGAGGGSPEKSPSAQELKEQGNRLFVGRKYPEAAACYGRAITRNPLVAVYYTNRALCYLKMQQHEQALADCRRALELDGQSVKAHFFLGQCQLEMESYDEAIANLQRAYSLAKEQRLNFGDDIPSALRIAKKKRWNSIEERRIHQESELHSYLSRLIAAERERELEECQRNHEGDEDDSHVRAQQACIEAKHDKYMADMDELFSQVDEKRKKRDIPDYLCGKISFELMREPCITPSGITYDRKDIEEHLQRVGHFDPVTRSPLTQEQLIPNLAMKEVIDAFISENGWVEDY
Protocol: as §1
Mixtures of 1.58 μM CHIP and 20 nM Hsp72 tracer were incubated with 100 μM unlabeled competitor peptides in CHIP FP assay buffer (50 mM Hepes pH 7.4, 50 mM KCl, 0.01% Triton X-100). The plate was covered from light and allowed to incubate at room temperature for 30 min prior to reading.

Hsp72 I637A = test: DnaJB4 stimulation of ATPase activity of Hsp72 I637A (malachite green); format: biochemical
Protocol: (§3) ATPase assays were carried out using the malachite green assay as described ([14], [83]). In brief, 1 μM Hsp72 and various concentrations of DnaJB4 were added to clear 96-well plates, and the reactions were initiated by addition of 2.5 mM ATP. Reactions were allowed to proceed for 1 h at 37 °C, after which they were developed using malachite green reagent and quenched with sodium citrate. Plate absorbance was measured at 620 nm, and a standard curve of sodium phosphate was used to convert the absorbance values to pmol ATP/μM Hsp72/min. Vmax and Km, app were derived as fit parameters to a modified Michaelis–Menten model (ATPase rate=Vmax∗[DnaJB4]/(Km, app+[DnaJB4])) where Vmax reflects the maximal increased ATP hydrolysis conferred by DnaJB4 binding and Km,app represents the half-maximal concentration of DnaJB4 binding to and stimulating the ATPase activity of Hsp72.

[3] = system: Hsp90⍺ ubiquitination by CHIP; test: In vitro ubiquitination of Hsp90⍺ by CHIP in the presence of DnaJB4; format: biochemical; conditions: 1 μM CHIP, 1 μM FAM-labeled Hsp90⍺, increasing DnaJB4, 10 min room temperature
Protocol: (§4) Four 4 × stock solutions were prepared containing (i) Ube1 (R&D Systems) + UbcH5c/UBE2D3 (R&D Systems) (400 nM Ube1 and 4 μM UbcH5c), (ii) Ubiquitin (R&D Systems) (1 mM Ub), (iii) CHIP + substrate + DnaJB4 (4 μM CHIP, 4 μM substrate, varying concentrations of DnaJB4), and (iv) ATP + MgCl2 (10 mM ATP and 10 mM MgCl2) in ubiquitination assay buffer (50 mM Tris pH 8.0, 15 mM NaCl). CHIP + substrate + DnaJB4 solutions were allowed to equilibrate at room temperature for 30 min prior to initiating the reaction. Ubiquitination reactions were generated by adding 10 μl of each 4 × stock, in order from 1 to 4, for a final volume of 40 μl(100 nM Ube1, 1 μM UbcH5c, 250 μM ubiquitin, 2.5 mM ATP, 2.5 mM MgCl2, 1 μM CHIP and 1 μM substrate). […] Samples were separated by SDS-PAGE on 4% to 20% polyacrylamide gels (Bio-Rad) and analyzed by in-gel fluorescence on a Chemidoc Imager (Bio-Rad) using the SYBR green fluorescence setting or by staining with Coomassie blue reagent. Quantitation of substrate ubiquitination was performed by densitometry analysis in ImageJ (NIH), which was thresholded to a no-CHIP control.
(§5) Substrates for in vitro ubiquitination assays were labeled with 6-carboxyfluorescein (FAM) to enable in-gel fluorescence measurement of ubiquitination as described ([35]). […]

Hsp72 ΔEEVD = test: DnaJB4 stimulation of ATPase activity of Hsp72 ΔEEVD (malachite green); format: biochemical; conditions: Hsp72 ΔEEVD mutant
Protocol: as §3

WT Hsp72 = test: DnaJB4 stimulation of ATPase activity of WT Hsp72 (malachite green); format: biochemical
Protocol: as §3

[4] = system: MAPT/tau ubiquitination by CHIP; test: In vitro ubiquitination of MAPT/tau by CHIP in the presence of DnaJB4; format: biochemical; conditions: 1 μM CHIP, tau substrate, 30 min room temperature
Protocol: Four 4 × stock solutions were prepared containing (i) Ube1 (R&D Systems) + UbcH5c/UBE2D3 (R&D Systems) (400 nM Ube1 and 4 μM UbcH5c), (ii) Ubiquitin (R&D Systems) (1 mM Ub), (iii) CHIP + substrate + DnaJB4 (4 μM CHIP, 4 μM substrate, varying concentrations of DnaJB4), and (iv) ATP + MgCl2 (10 mM ATP and 10 mM MgCl2) in ubiquitination assay buffer (50 mM Tris pH 8.0, 15 mM NaCl). CHIP + substrate + DnaJB4 solutions were allowed to equilibrate at room temperature for 30 min prior to initiating the reaction. Ubiquitination reactions were generated by adding 10 μl of each 4 × stock, in order from 1 to 4, for a final volume of 40 μl(100 nM Ube1, 1 μM UbcH5c, 250 μM ubiquitin, 2.5 mM ATP, 2.5 mM MgCl2, 1 μM CHIP and 1 μM substrate). Reactions were incubated at room temperature (10 min for chaperone ubiquitination, 30 min for tau ubiquitination), quenched in 20 μl 3 × SDS-PAGE loading buffer (188 mM Tris-HCl pH 6.8, 3% SDS, 30% glycerol, 0.01% bromophenol blue, 15% β-mercaptoethanol), and heated to 95 °C for 5 min. Samples were separated by SDS-PAGE on 4% to 20% polyacrylamide gels (Bio-Rad) and analyzed by in-gel fluorescence on a Chemidoc Imager (Bio-Rad) using the SYBR green fluorescence setting or by staining with Coomassie blue reagent. Quantitation of substrate ubiquitination was performed by densitometry analysis in ImageJ (NIH), which was thresholded to a no-CHIP control. […]

Hsp70–CHIP complex = test: In vitro ubiquitination of Hsc70 by CHIP in the presence of DnaJB4; format: biochemical; conditions: 1 μM CHIP, 1 μM FAM-labeled Hsc70, increasing DnaJB4, 10 min room temperature
Protocol: as §4, §5

Hsp72 ATPase activity = test: Intrinsic ATPase activity of Hsp72 variants (malachite green); format: biochemical; conditions: 1 μM Hsp72, 2.5 mM ATP, 1 h at 37 °C, mean ± SD (n = 3)
Protocol: as §3

[5] = system: denatured Renilla luciferase; test: Luciferase refolding by Hsp72 variants in the presence of DnaJB4; format: biochemical; conditions: 1 μM Hsp72, 100 nM denatured luciferase, DnaJB4 titration, 1 h at 37 °C
Protocol: as §2

[6] = system: denatured Renilla luciferase; test: Luciferase refolding by Hsp72 variants in the presence of DnaJA2; format: biochemical; conditions: 1 μM Hsp72, 100 nM denatured luciferase, 1 h at 37 °C

T1 sequence (Q9UDY4 whole entry): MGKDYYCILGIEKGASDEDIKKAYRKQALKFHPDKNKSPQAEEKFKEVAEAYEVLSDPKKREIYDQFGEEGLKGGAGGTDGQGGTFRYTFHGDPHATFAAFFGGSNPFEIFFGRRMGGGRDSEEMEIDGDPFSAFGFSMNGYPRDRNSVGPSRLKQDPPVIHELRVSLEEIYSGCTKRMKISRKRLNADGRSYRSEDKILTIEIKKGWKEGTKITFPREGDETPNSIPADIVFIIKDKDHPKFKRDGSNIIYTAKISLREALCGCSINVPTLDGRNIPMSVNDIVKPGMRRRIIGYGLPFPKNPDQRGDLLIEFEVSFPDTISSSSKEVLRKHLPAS

## Hsp90β: unlabeled, N-acetylated 10-mer peptide corresponding to the C terminus of Hsp90β
DnaJB4 [1]
  DnaJB4 apparent melting temperature (Tm,app): 57 ± 0.20 °C
DnaJB4 [2]
  % tracer displacement: −1.3 ± 2.2%

## HOP: Hsc70 organizing protein, TPR cochaperone
Hsp72–DnaJB4 complex
  effect on client (luciferase) refolding by Hsp72–DnaJB4: suppressed luciferase refolding

## GSGPTIEEVD-CONH2 [peptide with an amidated Hsp72 C terminus]
DnaJB4 [2]
  binding to DnaJB4 in FP competition relative to WT Hsp72 peptide: drastically reduced binding
CHIP
  binding to CHIP in FP competition relative to WT Hsp72 peptide: carboxylate was important for binding to CHIP

## GSGPTIEEVD [Hsp72, unlabeled, N-acetylated 10-mer peptide corresponding to the C terminus of Hsp72/HSPA1A]
DnaJB4 [1]
  DnaJB4 apparent melting temperature (Tm,app): 58 ± 0.21 °C
DnaJB4 [1]; versus no peptide
  positive shift in the melt curves: 1 to 2 °C
DnaJB4 [2]
  % tracer displacement: 40.2 ± 4.6%

## TIEEVD
DnaJB4 [2]
  binding to DnaJB4 in FP competition relative to WT Hsp72 peptide: significantly weakened affinity

## IEEVD
DnaJB4 [2]
  binding to DnaJB4 in FP competition relative to WT Hsp72 peptide: further worsened it

## Hsp90⍺: unlabeled, N-acetylated 10-mer peptide corresponding to the C terminus of Hsp90⍺
DnaJB4 [1]
  DnaJB4 apparent melting temperature (Tm,app): 57 ± 0.15 °C
DnaJB4 [2]
  % tracer displacement: −7.7 ± 1.5%

## DnaJB4: representative class B J-domain protein, recombinant, full length
Hsp72 I637A; Hsp72 I637A
  Vmax,app above baseline: ~2 fold
Hsp72 I637A; Hsp72 I637A 1 μM, DnaJB4 titration, 2.5 mM ATP, 1 h at 37 °C, Michaelis–Menten fit
  Vmax,app: 23.9 ± 3.6 pmol ATP/min
Hsp72 I637A; Hsp72 I637A 1 μM, DnaJB4 titration, Michaelis–Menten fit, read-out: Km,app
  Km: ~0.01 µM
[3]
  effect on Hsp90 ubiquitination by CHIP: no effect
Hsp72 ΔEEVD
  stimulation of ATPase activity: unable to stimulate
WT Hsp72; WT Hsp72
  stimulation of Vmax,app over baseline: ~4 fold
WT Hsp72; WT Hsp72 1 μM, DnaJB4 titration, 2.5 mM ATP, 1 h at 37 °C, Michaelis–Menten fit
  maximum ATPase activity (Vmax,app): 37.8 ± 3.5 pmol ATP/min
WT Hsp72; WT Hsp72 1 μM, DnaJB4 titration, Michaelis–Menten fit, read-out: half-maximal concentration (Km,app)
  Km: ~0.06 µM
[4]
  effect on ubiquitination of Hsc70 and tau by CHIP: suppressed
Hsp70–CHIP complex
  effect on Hsp70 ubiquitination by CHIP: dose-dependent inhibition

## WT Hsp72: full-length recombinant Hsp72/HSPA1A
Hsp72 ATPase activity
  intrinsic ATPase activity: 10.9 ± 2.8 pmol ATP/min

## Hsp72 I637A: full-length Hsp72 with point mutation of the critical P5 isoleucine residue
[5]
  ability to coordinate with DnaJB4 in luciferase refolding: nearly completely impaired
[6]
  luciferase refolding in the presence of DnaJA2: comparably with WT
Hsp72 ATPase activity
  intrinsic ATPase activity: 15.8 ± 3.9 pmol ATP/min

## Hsp72 ΔEEVD: mutant of full-length Hsp72 in which the EEVD motif was deleted
[5]
  ability to coordinate with DnaJB4 in luciferase refolding: nearly completely impaired
Hsp72 ATPase activity
  intrinsic ATPase activity: 4.6 ± 1.9 pmol ATP/min
